Data set [1] concerns the molecule itself. In words: yeast two-hybrid, beta-galactosidase filter assay; bait and prey RNase H-like protein.
The next data set has as its target T1, untagged RNase A (UniProt P61823 27-150).
T1 construct: Negative control
T1 sequence: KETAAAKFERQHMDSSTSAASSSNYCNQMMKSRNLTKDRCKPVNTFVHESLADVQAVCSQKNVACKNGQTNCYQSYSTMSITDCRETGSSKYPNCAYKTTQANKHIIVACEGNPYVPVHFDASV
The data set can be described thus: farwestern blot (FIG. 13), control lane.

The target in data set [2] is T2, untagged hen egg white lysozyme (hen, UniProt P00698 19-147).
T2 construct: Negative control; also called HEWL
T2 sequence (P00698 19-147): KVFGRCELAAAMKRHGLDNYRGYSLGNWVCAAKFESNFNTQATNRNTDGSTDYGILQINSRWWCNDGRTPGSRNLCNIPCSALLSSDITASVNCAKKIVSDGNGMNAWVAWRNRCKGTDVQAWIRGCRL
In words: farwestern blot (FIG. 13), control lane.

Data set [3] concerns the target T3, untagged bovine serum albumen (bovine, UniProt P02769 25-607).
T3 construct: Negative control; also called BSA
The data set can be described thus: Ni column pull down under physiological conditions, SDS PAGE autoradiogram.

T3 sequence (P02769 25-607 limits assumed): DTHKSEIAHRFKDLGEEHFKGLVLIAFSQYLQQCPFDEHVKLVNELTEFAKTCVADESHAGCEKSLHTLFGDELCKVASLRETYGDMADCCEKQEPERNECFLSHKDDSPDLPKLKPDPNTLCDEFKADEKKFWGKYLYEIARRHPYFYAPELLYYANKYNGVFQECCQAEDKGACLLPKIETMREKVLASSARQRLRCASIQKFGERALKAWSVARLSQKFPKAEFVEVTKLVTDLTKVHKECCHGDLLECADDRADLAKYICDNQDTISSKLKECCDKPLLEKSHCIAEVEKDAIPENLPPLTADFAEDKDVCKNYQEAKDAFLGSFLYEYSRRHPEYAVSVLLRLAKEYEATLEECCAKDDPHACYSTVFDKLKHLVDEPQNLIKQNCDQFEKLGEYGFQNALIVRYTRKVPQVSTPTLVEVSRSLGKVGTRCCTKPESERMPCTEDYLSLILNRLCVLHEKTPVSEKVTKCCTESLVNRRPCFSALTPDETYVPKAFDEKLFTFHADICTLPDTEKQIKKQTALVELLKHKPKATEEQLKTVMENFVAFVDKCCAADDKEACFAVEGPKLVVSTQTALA

B1: RNase H-like protein (sugarcane), yeast two-hybrid fusion (other)
chain: GHYGRGEHCMKNMAASYSQDAQLDLVLPDAPVDASASRSEHSSQLASSNWRSVIQNSPPDLLCGCGRPAIRRTAETAKNNGRIFRTCPACKIWIWQDLLDSYVNALISYCRDASIDSLQSELESSRLLISEKQAQISRLEKQLETLQPLISKYTEQSRSIAQASIPSSLFFLEACSLRHQRRRVNENQGGANFKRSYWSD
notes: Prey clone from the cDNA library of silenced sugarcane plant #16; same id for bait and prey fusions
Turning to B1, the binding result in data set [1] was “binds”.

B2: 35S labeled RNase H-like protein transcription and translation (TNT) product (other)
chain: GHYGRGEHCMKNMAASYSQDAQLDLVLPDAPVDASASRSEHSSQLASSNWRSVIQNSPPDLLCGCGRPAIRRTAETAKNNGRIFRTCPACKIWIWQDLLDSYVNALISYCRDASIDSLQSELESSRLLISEKQAQISRLEKQLETLQPLISKYTEQSRSIAQASIPSSLFFLEACSLRHQRRRVNENQGGANFKRSYWSD
modifications: labeled with 35S Cysteine
notes: Made in rabbit reticulocyte lysate; used as probe in farwestern blots and as the labelled partner in the pull down
B2: the binding result (with untagged RNase A; in data set [2]; in data set [3]) was “no binding” in each case.

Source of the values: patent US20030099984A1 (TEXAS A AND M UNIVERSITY SYSTEM, published 2003).
